These results are taken from a protein production outcome set (Wang et al. 2014).

The nature of this data set: label from the status in PepcDB records.

For “MNRNLLLFASGSFVSLIGTRIYQVALAWWLYSKTGSSEYVGLFMISSFLPAIIVSPFAGTVVDRHSRRNMMVVMDILRGVLFMYLFLMEYFSELTMALLLIVTVLVSVFDSFFNPAVDSLLPDLVRKENLVRANSLYRLLKNLSKILGPALGSLLLKVVGLAGVILINSLSFLISGIFEMFIKVEEKHLKKVSKERNMWQDIKSALLYIRSVRFILVTILVIAIMNFFTGSMHVLLPEHVSKLGKSEWVYGTLMSMLSFGGLIVTFLMATIRTRASVKTLGLNLVGYGLAVFVFAMTGNHWLMFAMYFLIGIFQTLFNINVITLLQLAIPEEMRGKIFSLISAVSFSLLPVSYGFFGFLSSYVATAHIFITTSMALIAGGVLISLQRFEG”, the protein production result is recorded as “failed”. Regarding “MNRSANTNAVLLLLLCAFFWGASFPVGKHALGEVHALTLVIWRFAIAAACLFAFIKWKRIPIPELKAKQWLWVVGVSIVGVGGLNLGLFTGLAQTNASNGALIMALSPLTTSLIGSLLQRKLLTRGAVFSLVVCLSGVLLVLTNGELKRLLSFEFNHGDQIIFLGMLCWSLYTYLTQGISRWMPMIPYTFIGMLAGLGVISVVAAFSAEAHPVQESLAISQIVLADLLFIGVFGTVGGYLLWISGVKQLGAANASLFFNFVPIFAALTAVTFGQNVASLQLLGMAIVISGLLLPRLTHWRQQRFARMG”, the protein production entry is on record as “failed”.

With “MNRSNQDITQPTAIIAVVGVGAEQGIGAAVCRRFAQEKFKVYVAGRTLNKVEKVAAAIHRQGGQAVAYVLDAENEQQLQTLFDHLNDQPEALAAVIHNVGGNIPSIFLQSSLKFFSQMWRSTFLSSVLVAQRSLSIFQKQQQGTLIFTGASASLRGKPFFAAFSMGKSALRSYALNLAELYRSQNIHVAHVMVDGMVDGDRVNKALWGLGRLARLTRGTGGLNIDAIAENYWMLYQQNVDLWTHELDLRPYQEKF”, the protein production result is listed as “failed”. On to “MNRVEPPYDVKEALVFTQKMAQLSKALWKSIEKDWQQWLKPYDLNINEHHILWIAYQLNGASISEIAKFGVMHVSTAFNFSKKLEERGYLRFSKRLNDKRNTYVQLTEEGTEVFWSLLEEFDPTRNAVFKGSQPLYHLFGKFPEVAEMMCMIRHIYGDDFMEIFETSLTNIDNDFESVNGKLKKKAKDSAADEPAEELEPVNS”, for which the protein production entry is given as “not failed”. Take “MNRVFKKNSVFAIIFAACSWGGFLDRAYAEACPSEDFSKFLTVFSATPEVQQRFTAVKVQALVLKPAKQTDRFEPQTTDVANASLAYPLMGPIISDKTDGVQIEAVDDRHVRVIDKRAGHSDIKVFNFSRQTCWVLAGMEDWSISEKDLSAAVQPKMNRSESLCFQRGRAYAGLGGVEQYPLTAEFFEAALENYVCAAASGDPQASLNAASLSLSGMAPQLETEKVEALFKAASTTLADGAAGLSSFYCYGNNVAADGPCQHPEQAEKELVRAVSMGSSDATNYLGYTLETGELRTTDLDRAIACYRLAASMGNQTAADNLKRLSKQATDVSTAGHCY”: the protein production result was “failed”. As to “MNSEENTDSIPIDLILDILSRLPSKSIARCRCVSKLWESMIRQSYFTELFLTRSSSRPHLLIAVEQEGEWKFFSLPQPKNYLGKSSLVVAANLHLKFFEDKRPQHGCSYASSLIYFPNMTIRKKGDDHLGVICNPSTGQYGYVILPPLLDFKSVPYGKFLGFDPIDKQFKVLIPIFDFDKHQTDHHILTLGAETVGWRKIQSPLRYLPHSNGTICINGILYYLAKINYAMDKNVLVCFDVRSENFVFLRLNTYCSSTKLVNYKGKLGMINQEYVDDGGFPLKLSVWVLEDVGKEEWSTYVYTLRDDNKVDQVKYNLSVVGVTASGEIVLVKKTQTLKPFYVLYFNPDKNTLLTVEVKGLHRGLYAVHRIYAFVDHVEDLEFNIMKTTYAAKSKFSQEDRF”, the protein production result is reported as “failed”. The entry for “MNSEWIWRLRARLGYGVARQLLGWPWLVKQPRAWQWMQGQFSRMANLGHRDAQAFYGHLLLFRGQGFGAREEGLRLLRLAASAGDGKSAYQLGVQALKGDSRQAPDALAASRHWALAAEAGHPLAARKLAELYRDGGPGLAPDSERAEHYAQRASALGLLEHHHHHH” is “failed”. For the sequence “MNSIRSSPAIGENRTVYIGSYDGKLYAFNPDGTLKWSYTTGNQITGSATIGADGTICIGSYDRRLYTINPDGTLKWSYTTGNQIFSSAAIGEDGTIYVGSRDNKLYALNPDGTLKWSYTTGNQIFSSAAIGEDLEHHHHHH”, the protein production entry is listed as “failed”. For “MNSIVSTVRGILTLSRSETFDSPRDEAKSDLKVLSVAWNQVCSGFIVGTNHGFNVYSCKPMIKKSISRAPHESGFKVAEMLFLSNLFAFVGNGYNNSEYPPNKVFVWDDYRNCCLSELTFKSEVIAVKLAREHVVVVLKQNIYVYTFNNLKVDRVIETLMNPKGLCCVTHVESKAVLACPGFHPGQVQVHDLRWNVIKFIKAHDSAIACMTLTLDGSLLATASTKGTLIRIFNAVDGTLLQEFRRGVERAEIYNVAISSNLKWVAASSEKGTLHVFRLRPDILSFDPASSSSFIRVILPKYLYENERSFAQFSLPASTKFIVGFGSENTVLLVGIDGSFRRCKFDHADGGQMVELEHKYFFSLQETGNTMVGGV” the value was “failed”; for “MNSKENLKIVQLSDLHIKKDFNADRLDKVIQKTNEQNPDFIIFSGDLYDNYSQYNENEAVISKLKSLKAKYGKIAIWGNRDYGGGAVKEYANIMAESDFSLLRNENQVFTLDNGKKILFTGLDDALLGNPQFPSLEHHHHHH”, “not failed”; for “MNSLSLFSPSFTDSVFDALDRSLGPNFGVFAPIKNASCGMPSVDIRETEKAYVMEVDLPGYSEKDVEISLKDRLMTISSSKKEEKEDKGAEYIIKERSSRHFMRRFTLPEDINSDEVSAKFENGVLVVNIPRKPDTQPKQIEIKTA”, “failed”. In the case of “MNSMAKKDNLTEELKKHFGFDTFKGNQRAIIENVLAGNDTFVLMPTGGGKSLCYQLPSLMMQGTAIVISPLIALMKNQVDAMRNFSEEDGVAHFINSSLNKSAIDQVKDDIRNGRTKLLYVAPESLTKDENVEFLRQVNISFYAVDEAHCISEWGHDFRPEYRRIRPIINEIGKRPLIALTATATPKVQHDIQKNLGMIDASVFKSSFNRSNLYYEIRPKTANIDREIIKYIKSNEGKSGIIYCLSRKKVEEFADILKANGIKALPYHAGMDSQQRSSNQDAFLMEKADVIVATIAFGMGIDKPDVRYVIHYDIPKSLEGYYQETGRAGRDGGEGQCIAFYAYKDLQKLEKFMQGKPVAEQEIGKQLLLETAAYAETSVCRRKVLLHYFGEEYLEENCGNCDNCLNPKKKVEAKELLSAVLEVVGTLKEKFKAEYIVNMLVGNETSEIQSYKHNELEIFGSGSDEEEKTWNAVIRQALIAGYLAKDIENYGLLKITEKGKEFIKKPVSFKITEDNEFDEEEEEVPVRGGAACAVDPALFSMMKDLRKKLSKRLEVPPFVIFQDPSLEAMATTYPVTLEELQNIPGVGAGKAKRYGKEFIELIKRHVEENEIERPEDLRVRTVANKSKLKVSIIQRIDRKVALDEIAMTNGLEFNELLDEIEAIVYSGTRINIDYFLNDVMDEDHIDDIYEYFKDSETDDLEDAIEELGGDYTEEEIRLVRIKFLSEMAN”, the protein production entry was “failed”.

Consider “MNSNRSLLVMGLLLVSFLIFTQWQQDFNPEIQAQKQAQQQSRDVPHATNTANAITEHMTKGKTITVESDVLRLVIDTLGGDVIESDLLAHKASLDSTDPLKLLTTEGLIYTAQSGLVGKNGIDTHIGRAPYQVTQDHFTLAKGQNEIVVPMTFEQDGVMYTKTFTLKRGSYDVAVSFDIQNNSANTIEVQPYGQIKHSLLDSSGNLAMPTYTGGAYSSSETNYKKYSFDEMTKANLNIDTKGGWVALLQHYFVSAWVPNQDASNTLYSRTHNGVATIGYRGPITTVKPNTKTTITSQLWTGPKDQKEMAQAATHLELTVDYGWAWFIAKPLFWLLIFIHSIIGNWGLAIMGVTLVVKSLLYPLTKAQYTSMAKMRMLQPKLQELRERYGDDRQQMSQEMMKLYKQEKVNPMGGCLPLILQMPIFIALYWTFMEAVELRHAPFFGWIQDLSAQDPYYIFPVLMGLSMFLLQKMSPTAVADPTQLKVMTFMPVIFTVFFLWFPSGLVLYWLTSNCITIVQQWLIYRNLEKKGLHTRKK”, for which the protein production entry is “failed”. For “MNSPHMDYALAPRASGPASWLETFLVTALVIGVGLWLAPEDPLQVQGEFPWSVLAPLLLGVRYGFVRGLISASLLVAAFFALRHSGLASYAQVAPSYIVGVLVCGMLVGEVRDLWERRLLRLQMANEYRQYRLDDFTRAHQILRVSHDRLEQRLAGSDQSLRSSLLGLRDRLRAAPNGGDPLSLLAEPVLTLLGQYGSLRVAGLYRVEQGASAAPQLSLLASIGTMGPLDSQDLLVRMCLEREELVSVREELLDSGAQASVSSLQACVPLVDTQGQVLAILAVRQMPFFAFQERTLSLLALLAGHIADLLHPDPQVLQLQSADAQHFTRQLKRSLVDVERHGLSGCLYAFELTQPNDELARLFERSQRGLDLHLSLANARGHELLLVLLPLTSAEGAQGYLARLGKLVHEHFGMSVELAGLGVKVLPYDLESARQRDGLRNYLYNECGLNDQQVAV” the value was “failed”; for “MNSSESKSLVVIGGGGHASVLVDILRSQQREILAIVSPENISQRRIFSGITHLKNDDDILRFSPDSVNLVNGVGMLPKSGLKRKLNEYFLSLGYTFETVISDSAQVSSFAEIEQGAQVFSGAIIQAGVVIDAHTIINSGVIIEHDCHIGEYNHIAPKATLCGQVTTHSNVYVGANATVIQNITLEQGSIVGAGAIVTKNISSEQICYPSRSVLK”, “failed”; for “MNSSPPPANSANGDTTNNGENGQDLNLNFLDKIRLSAKRDAKEDEGEELPTELNTINSAGGFLVVSPDKLSVKYTNTNLHGHDVGVVQANKPAPIKCLTYYFEIFVKDSGIKGQIAIGFTKESFKMRRQPGWEVNSCGYHGDDGYLYRGQGKGEPFGPKFTKDDAVGGGINYASQEFFFTKNGTIVGKIPKDIRGHLFPTVAVHSQNEEVLVNFGKKKFAFDIKGYEASERNKQQLAIEKISIPPNIGYGLVKTYLLHYGYEETLDAFNLATKNTVPPIHIDQENAIDEDDSSYALKQRKNLRQLVRNGEIDTALAELQKLYPQIVQDDKSVVCFLLHCQKFIELVGKLEEGVNYGRLELAKFVGLTGFQDIVEDCFALLAYEKPEESSVWYFLEDSQRELVADAVNAAILSTNPNKKDVQRSCHLQSHLEKLLRQLTVCCLERRSLNGDQGETFRLRHVLNNNR”, “failed”. The entry for “MNSTEITQNTDVPSHFRSIKTFVLRTGRMTEGQKRNYEAFYQKWCIPYTESPIDFQTLFQNDNPVIIEIGFGMGTATAQIAEDNPDKNYLGIEVFKAGVGKLLGEIEEKKLNNLRIIEHDAIEVLENMINNESVDGFHIFFPDPWQKKRNHKRRLVRRPRTDLLSKKLKDGGYIYMVTDWENYAEDAFEQLSETPNLKSKYEKFAPSQSWRPTTKFEKKGLKKEHVINELIFEKD” is “failed”; for “MNTGMGLIWIAGASGLLAFLTSLLYFFRQDRKFLALSEKLELIAGVGLVFAIFLLAFYLLGVDTQYSYVFQHSSTDLAWHYRFSALWAGQEGSFLIWTGFIFVMLAITRFTGTGKVLRETEIFSIMRSVSLFVASVFLLLLALKNPFSMYYYTGTGVPDVTNWNLFAEPFVVSYGQGMNPLLRNPWMAIHPPLLFLGYAAFTLPFSAAIGGLVLKDSRWSELATGWMRVSWLFLTLGIGFGAFWAYEVLGWGAWYWTWDPVETSSLIPWLTATAYLHAKLRARQGEYGFLLPMLALVSFILVIFSTFVTRSGLWVSVHSWQDFTMEGMIIALFLVVLIGSSAVLLVRKYFSEE” it is “failed”.

For the sequence “MNTIRPVSDLRNNFADISKIVHQSQQPVFLTKNGYGDMVVMSMETFEDMKFESDIYSKLQEAEKQASLTGKRFSSKDVFEEIQKLISELEHHHHHH”, the protein production result is “not failed”. For “MNTLSIYRFKQWLKEGESPLALTLFRIAKSIRHFELPTPRLLNKVLYGLHKTLCTQWQAFTHLIFYVPAFKGRLESYGKRTLLYGGLPFFSGPLTMRIGNDCRISGQTTFSGRTNSDNPTLEVGDNVDICWQTTIAVGNKVIIGNNVRIAGQGFLCGYPGHPIDPTERALGKPDLDSQVGDIILEQDVWLGSRVSIIGNVTVGEGTIVASGSVVTKSLPPFVLAAGNPAKVIKKLDVNASNTIKEEIHYEA”, the protein production result is listed as “failed”.
